Measured values published in patent publication US20230234987A1.

Legend:
[1] = biological target: His-tagged PP1 (protein phosphatase 1, catalytic subunit); test: plate binding curve: biotinylated peptide on His-PP1 on nickel wells, streptavidin-Alexa Fluor 488
[2] = biological target: His-tagged PP1 (protein phosphatase 1, catalytic subunit); test: competition plate assay: MYPT1 1-299 binding to His-PP1 with increasing PIP250; competitor MYPT1 1-299
[3] = biological target: His-tagged PP1 (protein phosphatase 1, catalytic subunit); test: plate binding curve: MYPT1 1-299 on His-PP1 on nickel wells, streptavidin-Alexa Fluor 488
[4] = biological target: His-tagged PP1 (protein phosphatase 1, catalytic subunit); test: as above; remark: listed apart in the source

| Kd [1] [µM] | Ki [2] [µM] | Kd [3] [µM] | Kd [4] [µM] | Substance |
| --- | --- | --- | --- | --- |
| 724 |  |  |  | PIP252 (H-rrfkaktkkrk-NH2) (peptide) |
| 610 | 155 |  |  | PIP250 (H-rrfkvktkkrk-NH2) (peptide) |
|  |  | 0.05 | 0.049 | amino acids 1-299 of MYPT1 |
| 1280 |  |  |  | PIP251 (H-rrakvktkkrk-NH2) (peptide) |
